The chains are these.
B1: library; a variant is named by its letters at N, in order (parent)
chain: GCUGUCACCGGUGCUUGGUACGUUAUAUUCAGCCGGUCUGAUGAGUCUNNNNNNAGACGAAACAGC

± gives the standard deviation of the averaged measurements.

The variants in series [1] derive from B1. Put plainly: normalized RNA/DNA level without ligand (relative to sTRSVctl = 100) (log10 (% of sTRSVctl)); HEK293T overexpressing SLC46A1; higher = less ribozyme self-cleavage, higher mRNA level. To be noted: without (6R,S)-folinic acid; ligand present: no. In a few lines:
(§1)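 Total RNA, extracted with EDTA 72 h after HEK293T cells were transfected with 4 µg per 6-well well of reporter-linked ribozyme switch library plasmids, was reverse-transcribed, amplified, barcoded and sequenced. Ligand, if used, was added 1 h before transfection. RNA level was derived from RNA reads divided by DNA reads and normalized to a spiked-in non-cleaving sequence or to the top sequences. This was multiplied by 100 and log10-transformed, with the top set of 25 sequences and a ≥100 DNA read minimum.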

The variants in series [2] derive from B1. Kind of series: normalized RNA/DNA level with ligand (relative to sTRSVctl = 100) (log10 (% of sTRSVctl)); HEK293T overexpressing SLC46A1; ligand concentration (+) RNA-Seq: 6 mM; higher = less ribozyme self-cleavage, higher mRNA level. The following applies: with (6R,S)-folinic acid; ligand present: yes. In short, it runs like this:
as §1

Consider CUACCG, for which, in series [1], the “normalized RNA/DNA level without ligand (log10)” value is 2.06 ± 0.029. Also, the “normalized RNA/DNA level with ligand (log10)” value in series [2] was 2.05 ± 0.025.
For CUACCC, the “normalized RNA/DNA level without ligand (log10)” value in series [1] amounted to 2.045 ± 0.011. In addition, in series [2], the “normalized RNA/DNA level with ligand (log10)” value was determined as 2 ± 0.047.
Taken in the same sequence, the figures for CUACCA were 2.0575 ± 0.0015 and 2.0336 ± 0.0013.
On to CUACCU, for which the “normalized RNA/DNA level without ligand (log10)” value in series [1] was found to be 2.044 ± 0.02. Further, the “normalized RNA/DNA level with ligand (log10)” value in series [2] was determined as 2.01 ± 0.026.
In the case of AUCCGG, in series [1], the “normalized RNA/DNA level without ligand (log10)” value is 2.0408 ± 0.002. Also, the “normalized RNA/DNA level with ligand (log10)” value in series [2] worked out at 2.05 ± 0.023.
With AUCCGU, in series [1], the “normalized RNA/DNA level without ligand (log10)” value came to 2.023 ± 0.011. In addition, the “normalized RNA/DNA level with ligand (log10)” value in series [2] is 2.01 ± 0.027.
The corresponding values for AUCCGA are 1.998 ± 0.0056 and 2.023 ± 0.0052.
Regarding AUCCGC, the “normalized RNA/DNA level without ligand (log10)” value in series [1] amounted to 2.054 ± 0.019. Besides, the “normalized RNA/DNA level with ligand (log10)” value in series [2] came to 2.032 ± 0.005.
AUACCU: in series [1], the “normalized RNA/DNA level without ligand (log10)” value was determined as 2.0169 ± 0.00086. Also, in series [2], the “normalized RNA/DNA level with ligand (log10)” value was found to be 2.025 ± 0.011.
For AUACCC, the “normalized RNA/DNA level without ligand (log10)” value in series [1] came to 2.023 ± 0.003. Moreover, the “normalized RNA/DNA level with ligand (log10)” value in series [2] is 2.01 ± 0.023.
Taken in the same sequence, the figures for AUACCG were 2.013 ± 0.013 and 2.04 ± 0.042.
Take GUCAGU: the “normalized RNA/DNA level without ligand (log10)” value in series [1] worked out at 2.03 ± 0.026. For the same variant, in series [2], the “normalized RNA/DNA level with ligand (log10)” value came to 2.04 ± 0.038.
For GUCAGA, the “normalized RNA/DNA level without ligand (log10)” value in series [1] turned out to be 2.0258 ± 0.00039. The “normalized RNA/DNA level with ligand (log10)” value in series [2] worked out at 2.027 ± 0.01.
In the case of GUCAGC, the “normalized RNA/DNA level without ligand (log10)” value in series [1] came to 1.979 ± 0.018. The “normalized RNA/DNA level with ligand (log10)” value in series [2] was determined as 2.02 ± 0.033.
As for UUCAGC, the “normalized RNA/DNA level without ligand (log10)” value in series [1] is 2.063 ± 0.016. In addition, in series [2], the “normalized RNA/DNA level with ligand (log10)” value is 2.048 ± 0.014.
As for UUCAGA, the “normalized RNA/DNA level without ligand (log10)” value in series [1] is 1.975 ± 0.011. Besides, the “normalized RNA/DNA level with ligand (log10)” value in series [2] worked out at 2 ± 0.021.
Turning to UUCAGU, the “normalized RNA/DNA level without ligand (log10)” value in series [1] is 1.9849 ± 0.0019. Also, the “normalized RNA/DNA level with ligand (log10)” value in series [2] was found to be 2.01 ± 0.043.
Taken in the same sequence, the figures for CUACGC were 2.025 ± 0.013 and 2.028 ± 0.0021.
Consider CUACGG, for which, in series [1], the “normalized RNA/DNA level without ligand (log10)” value amounted to 2.102 ± 0.0025. Also, the “normalized RNA/DNA level with ligand (log10)” value in series [2] turned out to be 2.092 ± 0.0045.
Taken in the same sequence, the figures for CUACGU were 2 ± 0.01 and 1.99 ± 0.035.
The corresponding values for CUACGA are 2.045 ± 0.012 and 2.05 ± 0.028.
Take UUAUGG: the “normalized RNA/DNA level without ligand (log10)” value in series [1] worked out at 1.798 ± 0.008. Moreover, the “normalized RNA/DNA level with ligand (log10)” value in series [2] amounted to 1.97 ± 0.0093.
As to UUAUGC, the “normalized RNA/DNA level without ligand (log10)” value in series [1] was 1.989 ± 0.0091. Further, in series [2], the “normalized RNA/DNA level with ligand (log10)” value is 2.02 ± 0.039.
Turning to CUCCCC, the “normalized RNA/DNA level without ligand (log10)” value in series [1] stood at 2.02 ± 0.033. The “normalized RNA/DNA level with ligand (log10)” value in series [2] is 2 ± 0.058.
The corresponding values for CUCCCG are 2.067 ± 0.0068 and 2.0818 ± 0.00082.
On to CUCCCA, for which, in series [1], the “normalized RNA/DNA level without ligand (log10)” value is 2.064 ± 0.0049. In series [2], the “normalized RNA/DNA level with ligand (log10)” value is 2.01 ± 0.061.
On to CUCCCU, for which the “normalized RNA/DNA level without ligand (log10)” value in series [1] was determined as 2.04 ± 0.044. Moreover, the “normalized RNA/DNA level with ligand (log10)” value in series [2] worked out at 2.05 ± 0.062.
UUACUC: in series [1], the “normalized RNA/DNA level without ligand (log10)” value stood at 2.048 ± 0.0074. Also, the “normalized RNA/DNA level with ligand (log10)” value in series [2] was 2.03 ± 0.027.
The corresponding values for UUACUA are 1.978 ± 0.0023 and 2.01 ± 0.034.
For UUACUU, the “normalized RNA/DNA level without ligand (log10)” value in series [1] is 1.991 ± 0.0083. The “normalized RNA/DNA level with ligand (log10)” value in series [2] turned out to be 1.994 ± 0.019.
Take AUAAUG: the “normalized RNA/DNA level without ligand (log10)” value in series [1] is 1.91 ± 0.021. Further, the “normalized RNA/DNA level with ligand (log10)” value in series [2] stood at 2 ± 0.043.
With AUAAUU, in series [1], the “normalized RNA/DNA level without ligand (log10)” value was found to be 1.99 ± 0.025. For the same variant, in series [2], the “normalized RNA/DNA level with ligand (log10)” value was 2.03 ± 0.038.
Take AUAAUC: the “normalized RNA/DNA level without ligand (log10)” value in series [1] came to 2.024 ± 0.015. Moreover, the “normalized RNA/DNA level with ligand (log10)” value in series [2] stood at 2 ± 0.032.
On to GUCCCU, for which the “normalized RNA/DNA level without ligand (log10)” value in series [1] stood at 2.05 ± 0.021. Also, the “normalized RNA/DNA level with ligand (log10)” value in series [2] was found to be 2.03 ± 0.03.
In the case of GUCCCA, the “normalized RNA/DNA level without ligand (log10)” value in series [1] was 2.039 ± 0.0032. Also, the “normalized RNA/DNA level with ligand (log10)” value in series [2] is 2.016 ± 0.0029.
Regarding GUCCCG, in series [1], the “normalized RNA/DNA level without ligand (log10)” value is 2.004 ± 0.019. The “normalized RNA/DNA level with ligand (log10)” value in series [2] came to 1.98 ± 0.024.
In the case of AUAUGC, the “normalized RNA/DNA level without ligand (log10)” value in series [1] was 1.9727 ± 0.0008. The “normalized RNA/DNA level with ligand (log10)” value in series [2] came out at 1.99 ± 0.046.
Take CUACUA: in series [1], the “normalized RNA/DNA level without ligand (log10)” value is 2.02 ± 0.021. Besides, in series [2], the “normalized RNA/DNA level with ligand (log10)” value is 2.05 ± 0.04.
For CUACUG, the “normalized RNA/DNA level without ligand (log10)” value in series [1] came to 2.0146 ± 0.00058. Moreover, the “normalized RNA/DNA level with ligand (log10)” value in series [2] stood at 2.04 ± 0.024.
The corresponding values for CUACUU are 2.03 ± 0.022 and 2.02 ± 0.039.
For the variant CUACUC, the “normalized RNA/DNA level without ligand (log10)” value in series [1] came to 2.05 ± 0.021. The “normalized RNA/DNA level with ligand (log10)” value in series [2] was 2.03 ± 0.039.
The corresponding values for UUACCA are 2.03 ± 0.0034 and 2.028 ± 0.016.
The corresponding values for UUACCU are 2.061 ± 0.0025 and 2.05 ± 0.04.
Consider UUACCG, for which the “normalized RNA/DNA level without ligand (log10)” value in series [1] came to 1.969 ± 0.0046. Besides, in series [2], the “normalized RNA/DNA level with ligand (log10)” value is 2 ± 0.04.
Take CUAAGC: the “normalized RNA/DNA level without ligand (log10)” value in series [1] worked out at 2.02 ± 0.026. Moreover, in series [2], the “normalized RNA/DNA level with ligand (log10)” value was 2.024 ± 0.018.
As for CUAAGG, in series [1], the “normalized RNA/DNA level without ligand (log10)” value was found to be 1.96 ± 0.0065. Moreover, the “normalized RNA/DNA level with ligand (log10)” value in series [2] amounted to 2.002 ± 0.014.
CUAGGG: the “normalized RNA/DNA level without ligand (log10)” value in series [1] came out at 1.882 ± 0.017. In series [2], the “normalized RNA/DNA level with ligand (log10)” value was 2.02 ± 0.028.
CUAGGA: in series [1], the “normalized RNA/DNA level without ligand (log10)” value worked out at 2.016 ± 0.0053. Further, the “normalized RNA/DNA level with ligand (log10)” value in series [2] was 2.01 ± 0.047.
Consider GUAAUU, for which the “normalized RNA/DNA level without ligand (log10)” value in series [1] was determined as 2.013 ± 0.0027. Also, the “normalized RNA/DNA level with ligand (log10)” value in series [2] is 1.99 ± 0.024.
On to GUAUAC, for which, in series [1], the “normalized RNA/DNA level without ligand (log10)” value stood at 1.9802 ± 0.0015. Moreover, the “normalized RNA/DNA level with ligand (log10)” value in series [2] turned out to be 2.02 ± 0.026.
As to GUAUAU, the “normalized RNA/DNA level without ligand (log10)” value in series [1] came to 1.944 ± 0.018. Further, in series [2], the “normalized RNA/DNA level with ligand (log10)” value worked out at 1.97 ± 0.043.
As to GUAUAA, the “normalized RNA/DNA level without ligand (log10)” value in series [1] worked out at 1.96 ± 0.014. For the same variant, the “normalized RNA/DNA level with ligand (log10)” value in series [2] was determined as 1.99 ± 0.006.
The corresponding values for CUAUAA are 1.984 ± 0.0043 and 1.978 ± 0.0033.
Take CUAUAU: in series [1], the “normalized RNA/DNA level without ligand (log10)” value worked out at 2 ± 0.033. In series [2], the “normalized RNA/DNA level with ligand (log10)” value was determined as 2.03 ± 0.063.
As to CUAUAC, in series [1], the “normalized RNA/DNA level without ligand (log10)” value came out at 2.001 ± 0.0069. Besides, the “normalized RNA/DNA level with ligand (log10)” value in series [2] was determined as 2.01 ± 0.014.
For CUAGAA, the “normalized RNA/DNA level without ligand (log10)” value in series [1] was 1.992 ± 0.016. In series [2], the “normalized RNA/DNA level with ligand (log10)” value turned out to be 2.018 ± 0.016.
CUAGAG: the “normalized RNA/DNA level without ligand (log10)” value in series [1] was 1.92 ± 0.035. In addition, the “normalized RNA/DNA level with ligand (log10)” value in series [2] was found to be 2.02 ± 0.042.
